Biological target: high affinity saturable binding sites for LDL on the human non-small cell lung tumour line L-DAN (LDL-receptors) (human (endogenous in L-DAN)) (UniProt P01130)
Assay: radioligand binding; 125I-labelled LDL on cells of the human non-small cell lung tumour line L-DAN; saturable binding

Sequence of high affinity saturable binding sites for LDL on the human non-small cell lung tumour line L-DAN (LDL-receptors) (human (endogenous in L-DAN)) (P01130 22-860): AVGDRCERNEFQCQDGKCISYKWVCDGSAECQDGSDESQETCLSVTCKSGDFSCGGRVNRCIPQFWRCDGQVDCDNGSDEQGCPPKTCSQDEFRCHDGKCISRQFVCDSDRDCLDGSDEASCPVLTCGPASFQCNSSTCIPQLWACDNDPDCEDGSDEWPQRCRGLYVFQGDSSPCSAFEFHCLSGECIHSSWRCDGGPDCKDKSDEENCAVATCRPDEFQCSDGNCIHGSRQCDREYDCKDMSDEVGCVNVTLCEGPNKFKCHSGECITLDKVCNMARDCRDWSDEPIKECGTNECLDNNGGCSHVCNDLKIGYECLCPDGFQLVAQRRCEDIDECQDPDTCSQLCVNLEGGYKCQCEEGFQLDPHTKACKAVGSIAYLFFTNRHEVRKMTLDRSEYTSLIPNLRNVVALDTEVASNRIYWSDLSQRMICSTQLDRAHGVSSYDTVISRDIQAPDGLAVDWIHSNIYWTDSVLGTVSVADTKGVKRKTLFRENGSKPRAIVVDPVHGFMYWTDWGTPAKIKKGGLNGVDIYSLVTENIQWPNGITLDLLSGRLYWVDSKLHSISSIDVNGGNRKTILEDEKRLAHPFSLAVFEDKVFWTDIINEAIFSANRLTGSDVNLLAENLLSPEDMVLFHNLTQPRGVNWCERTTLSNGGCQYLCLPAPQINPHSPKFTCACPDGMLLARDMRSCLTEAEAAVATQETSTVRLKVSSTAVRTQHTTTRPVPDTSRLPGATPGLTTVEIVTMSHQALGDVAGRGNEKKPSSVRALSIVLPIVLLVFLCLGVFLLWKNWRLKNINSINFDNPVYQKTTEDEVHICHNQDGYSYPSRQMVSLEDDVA

low density lipoprotein (LDL) (from UniProt P04114 28-4563)
Km (p ml ' (as printed, garbled)): 40
